Reference: US20250236644A1 (University of Washington, published 2025)
One block for each binder: values may come before it.

Legend:
effector protein 3hb32 = target: T1, effector protein 3hb32; test: SEC binding experiment
T1 chain: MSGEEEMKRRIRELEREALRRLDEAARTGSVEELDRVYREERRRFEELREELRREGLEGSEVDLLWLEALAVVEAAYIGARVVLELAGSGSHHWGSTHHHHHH

[1] = target: T2, TAMRA-labeled effector peptide cs269B (5(6)-TAMRA label coupled on resin after synthesis); test: fluorescence polarization kinetics; 5 nM TAMRA-peptide, slope of kapp against hinge concentration
T2 construct: also called TAMRA-cs269B
T2 peptide: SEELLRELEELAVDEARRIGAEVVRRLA

[2] = target: T2, TAMRA-labeled effector peptide cs269B; test: fluorescence polarization titration; TAMRA-peptide constant, hinge varied
Text: (§1) We used our hinge design approach to generate hinge-peptide pairs that span a wide structural space (FIGS. 1D, 2A, 6, 7). We experimentally tested multiple rounds of designs, using both DHRs (21) and helical junctions (22) as input scaffolds, and improving individual steps of the design pipeline between iterations. Designs for which hinge and GFP-fused peptide were soluble and interacted as judged by size exclusion chromatography (SEC, FIGS. 7-8) were selected for further characterization by fluorescence polarization (FP). […] To circumvent the bottleneck of finding soluble peptide sequences, we also sought to design hinges that bind to a given target peptide. Starting from design cs201, we used a modified version of our design pipeline to redesign the hinge to bind peptides cs074B or cs221B, respectively, which have similar hydrophobic fingerprints as the original target peptide cs201B.
(§2) All FP measurements were performed at 25° C. in 96-well plates (Corning 3686) using a Synergy Neo2™ plate reader and a 530/590 nm filter cube. The buffer for all FP measurements was 20 mM Tris-HCl, 100 mM NaCl, 0.05% v/v TWEEN20 at pH 8. Titrations were carried out in 96-well format, with 4 replicates per plate and 24 data points per titration (23 steps of two-fold serial dilution of hinges in the presence of TAMRA-labeled peptide at a constant concentration between 0.1 nM and 1 nM) with a final sample volume of 80 μl per well. Titration plates were incubated overnight at room temperature before measuring to ensure complete equilibration. The polarization signal S (as calculated by the Neo2™ software) was fitted to the equation

effector protein 3hb24 = target: T3, effector protein 3hb24; test: SEC binding experiment
T3 chain: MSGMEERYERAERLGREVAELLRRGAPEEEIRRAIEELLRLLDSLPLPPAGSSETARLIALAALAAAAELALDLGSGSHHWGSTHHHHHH

[3] = target: T4, TAMRA-labeled effector peptide cs230B (5(6)-TAMRA label coupled on resin after synthesis); test: fluorescence polarization titration; TAMRA-peptide constant, hinge varied
T4 construct: also called TAMRA-cs230B
T4 peptide: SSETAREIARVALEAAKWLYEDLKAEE
Text: as §1, §2

effector protein 3hb03 = target: T5, effector protein 3hb03; test: SEC binding experiment
T5 construct: Three-helix bundle built around peptide cs074B
T5 chain: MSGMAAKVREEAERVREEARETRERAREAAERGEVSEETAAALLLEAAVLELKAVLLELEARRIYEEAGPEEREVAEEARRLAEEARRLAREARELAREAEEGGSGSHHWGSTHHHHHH

effector protein 3hb11 = target: T6, effector protein 3hb11; test: SEC binding experiment
T6 construct: Three-helix bundle built around peptide cs074B
T6 chain: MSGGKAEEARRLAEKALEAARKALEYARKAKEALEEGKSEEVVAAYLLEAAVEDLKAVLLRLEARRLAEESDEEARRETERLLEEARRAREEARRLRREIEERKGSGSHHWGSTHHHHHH

effector protein 3hb04 = target: T7, effector protein 3hb04; test: SEC binding experiment
T7 construct: Three-helix bundle built around peptide cs074B
T7 chain: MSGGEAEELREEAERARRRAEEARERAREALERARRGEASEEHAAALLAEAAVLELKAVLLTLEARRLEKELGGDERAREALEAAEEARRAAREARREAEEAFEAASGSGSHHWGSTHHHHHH

effector protein 3hb12 = target: T8, effector protein 3hb12; test: SEC binding experiment
T8 construct: Three-helix bundle built around peptide cs074B
T8 chain: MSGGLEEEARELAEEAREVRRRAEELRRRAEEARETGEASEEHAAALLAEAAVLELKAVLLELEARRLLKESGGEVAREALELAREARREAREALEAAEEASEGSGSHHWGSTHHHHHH

effector protein 3hb08 = target: T9, effector protein 3hb08; test: SEC binding experiment
T9 construct: Three-helix bundle built around peptide cs074B
T9 chain: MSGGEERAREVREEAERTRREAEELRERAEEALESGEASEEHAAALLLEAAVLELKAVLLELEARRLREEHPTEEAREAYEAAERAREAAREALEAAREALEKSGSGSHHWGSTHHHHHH

[4] = target: T10, TAMRA-labeled effector peptide cs074B (5(6)-TAMRA label coupled on resin after synthesis); test: fluorescence polarization kinetics; slope of kapp against hinge concentration
T10 construct: Chemically synthesized; also called TAMRA-cs074B
T10 peptide: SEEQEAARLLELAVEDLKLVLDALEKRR
Experimental: as §2
(§3) For FP kinetics experiments a 2× peptide solution and 8 different 2× hinge solutions at different concentrations were prepared separately. 40 μl of each hinge solution were mixed with 40 μl peptide solution using a multichannel pipet and the measurement was started immediately after mixing. Polarization signals S at each concentration were fitted individually to the equation

[5] = target: T10, TAMRA-labeled effector peptide cs074B; test: fluorescence polarization titration; TAMRA-peptide constant, hinge varied
Text: as §1, §2

[6] = target: T11, TAMRA-labeled effector peptide cs221B (5(6)-TAMRA label coupled on resin after synthesis); test: FP titration, 1 nM TAMRA-labeled peptide, reducing conditions
T11 construct: also called TAMRA-cs221B
T11 peptide: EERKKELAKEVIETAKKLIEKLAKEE
Text: To test the effect of the conformational pre-equilibrium on effector binding, we introduced disulfide “staples” that lock the hinge in one conformation. Using FP we analyzed peptide binding to stapled versions of hinge cs221 (FIG. 5A,B). […] Using the pre-equilibrium model described above, the observed association rates provide an estimate of the fraction of hinge that is in state Y in absence of the peptide: a 200-fold higher observed on rate for the locked Y variant indicates a 200-fold higher fraction of hinge in state Y compared to the original hinge. Assuming that the locked Y variant is 100% in state Y and assuming that the microscopic rate constant k₂ is identical for the locked Y hinge and state Y of the original hinge, this would indicate that the original hinge is 99.5% in state X and 0.5% in state Y at equilibrium.
All FP measurements were performed at 25° C. in 96-well plates (Corning 3686) using a Synergy Neo2™ plate reader and a 530/590 nm filter cube. The buffer for all FP measurements was 20 mM Tris-HCl, 100 mM NaCl, 0.05% v/v TWEEN20 at pH 8. […] The polarization signal S (as calculated by the Neo2™ software) was fitted to the equation

[7] = target: T12, TAMRA-labeled effector peptide js007B (5(6)-TAMRA label coupled on resin after synthesis); test: fluorescence polarization kinetics; slope of kapp against hinge concentration
T12 construct: also called TAMRA-js007B
T12 peptide: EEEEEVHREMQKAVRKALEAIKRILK
Experimental: as §2, §3

[8] = target: T12, TAMRA-labeled effector peptide js007B; test: fluorescence polarization titration; TAMRA-peptide constant, hinge varied
Text: as §1, §2

[9] = target: T10, TAMRA-labeled effector peptide cs074B; test: fluorescence polarization titration; TAMRA-peptide constant, unlabeled hinge varied
Experimental: as §2

- binding result (effector protein 3hb32): binds
- kon [1]: 2500 M⁻¹ s⁻¹
- Kd [2]: 83 nM
B1: hinge cs269 (designed binder)
chain: MSGDEERVRELAERASREAERAVRSGSEESLEEALRNVEELIRKSDSEEARVRVAEAAVRAAAEAAARSGTVEAAAVAVIFTARVLQIVSSSEEAVVRVLAAAAAAAARVAVELGTEEALETALRFVELLVRLADSDEARQRVLRSASESARRSAEESGSERAREVAERFRERIERNQGSGSHHWGSTHHHHHH

- binding result (effector protein 3hb24): binds
- Kd [3]: 2800 nM
B2: hinge cs230 (designed binder)
chain: MSGTKEEKERIERIEKEVRSPDPENILEAVRKALELFRENPSEEAKELLKRAIEAALRSEDERAILEALRAALEAYRQGAGDREGLLEAIRVAIRRAAESEDERAILEAVRAARILLEAERTEEAKELLRVAIERAKKSPDPEAQREAKRAEEELRKEDGSGSHHWGSTHHHHHH

- binding result (effector protein 3hb03): binds
- binding result (effector protein 3hb11): binds
- binding result (effector protein 3hb04): binds
- binding result (effector protein 3hb12): binds
- binding result (effector protein 3hb08): binds
- kon [4]: 64000 M⁻¹ s⁻¹
- Kd [5]: 0.5 nM
B3: hinge cs074 (designed binder)
chain: MSGDEEVQEAVERAEELREEAEELIKKARKTGDPELLRKALEALKEAVRAVKEAIKRNPDNEEAVKTAVRLARELLKVAEELKERAEKTGDPRLLLLAAEAIAWAIEAVFLAAKASENTEGALEAARAAVKLAEVAKRIAKLLQRDAKKEGDPELLKLALRALELAVRAVELAIKENPDNEEAVETAKRLAEELRKVAELLEERAKETGDPELQELAKRAKEVADRARELAKKSNPNNGSGSHHWGSTHHHHHH
notes: De novo designed two-state hinge; the entry includes the C-terminal SNAC/His tag

- binding result [6]: binds
B4: variant cs221_lockedX, reducing conditions (DTT) (designed binder)
chain: MSGEMKEEIRRLAEELRERTKDEEVRELAREAARLAEESDDEEVKEVVKKALEAALKSKDEEVIRLLLLAAVCAAAAARSGSPEEKLEIAKKALELAMKSKDEEVIRLALLAAVLACRSDDEEVLKKVKEALEKAMESKDVEEIRERLREAVEVARAGSGSHHWGSTHHHHHH
notes: also called locked X with DTT

- kon [7]: 78000 M⁻¹ s⁻¹
- Kd [8]: 5.7 nM
B5: hinge js007 (designed binder)
chain: MSGSEEVNERVKQLAEKAKEATDKEEVIEIVKELAELAKQSTDPNLVAEVVRALTEVAKTSTDTELIQEIVKVLLELARRLTDPQLLLEVLKSIAELLKELAEKTGNETAKLAALVAQIAAEVVEMALRAEKTHPGSEIVKLAVELVQKVAEIVLIAAQLMLDKPNSDEVRKVLKEVEKVAREALKALREAKRHPDSQKARDEIKEASQKAEEVKERIERAQEGSGSHHWGSTHHHHHH

- kon [4]: 100000 M⁻¹ s⁻¹
- Kd [9]: < 2 nM
B6: FRET(extension) cs074F, unlabeled (designed binder)
chain: DEEVQEAVERAEELREEAEELIKKARKTGDPELLRKALEALECAVRAVEEAIKRNPDNDEAVETAVRLARELKKVAEELQERAKKTGDPELLKLALRALKVAVRAVKLAIKSNPDNEEAVKTAVRLARELLKVAEELKERAEKTGDPRLLLLAAEAIAWAIEAVFLAAKASENTEGALEAARAAVKLAEVAKRIAKLLQRDAKKEGDPELLKLALRALELAVRAVELAIKENPDNDEAVETAVRLARELKKVAEELQERAKKTGDPELLKLALRALEVAVRAVELAIKSNPDNEEAVETAKRLAEELRKVAELLEERACETGDPELQELAKRAKEVADRARELAKKSNPNNGSHHHHHH
notes: also called unlabeled extended hinge cs074F
